Patent US20220251154A1 (HANGZHOU SUMGEN BIOTECH, published 2022)

What was measured:
PD-L1-Fc = target: T1, PD-L1-Fc (UniProt Q9NZQ7 19-239, limits assumed); assay: competition ELISA: PD-L1-Fc coated, Biotin-Fc-PD1 (1 ug/ml) added with the binder; blocks PD-1/PD-L1
T1 construct: not shown: Fc part

[1] = target: T2, biotin-labeled CD47 (Biotin-Fc-CD47) (UniProt Q08722 19-139, limits assumed, biotin-labeled (site not stated)); assay: competition ELISA: SIRPα-His coated, Biotin-Fc-CD47 (2 ug/ml) pre-incubated with the binder; blocks CD47/SIRPα
T2 construct: not shown: Fc part
T2 sequence (Q08722 19-139 limits assumed): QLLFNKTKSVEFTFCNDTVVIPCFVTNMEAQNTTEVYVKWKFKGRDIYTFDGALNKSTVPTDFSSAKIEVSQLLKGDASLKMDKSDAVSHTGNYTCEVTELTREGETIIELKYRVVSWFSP

T1 sequence (Q9NZQ7 19-239 limits assumed): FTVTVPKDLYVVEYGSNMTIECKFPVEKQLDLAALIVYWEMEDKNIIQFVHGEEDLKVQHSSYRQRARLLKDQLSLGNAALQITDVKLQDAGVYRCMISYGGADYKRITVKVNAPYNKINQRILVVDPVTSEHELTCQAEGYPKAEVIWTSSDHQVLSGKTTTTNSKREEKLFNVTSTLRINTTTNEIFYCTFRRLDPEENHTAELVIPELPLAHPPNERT

B1: fusion protein SG12474 (bispecific antibody, human IgG1, kappa, N297A)
heavy: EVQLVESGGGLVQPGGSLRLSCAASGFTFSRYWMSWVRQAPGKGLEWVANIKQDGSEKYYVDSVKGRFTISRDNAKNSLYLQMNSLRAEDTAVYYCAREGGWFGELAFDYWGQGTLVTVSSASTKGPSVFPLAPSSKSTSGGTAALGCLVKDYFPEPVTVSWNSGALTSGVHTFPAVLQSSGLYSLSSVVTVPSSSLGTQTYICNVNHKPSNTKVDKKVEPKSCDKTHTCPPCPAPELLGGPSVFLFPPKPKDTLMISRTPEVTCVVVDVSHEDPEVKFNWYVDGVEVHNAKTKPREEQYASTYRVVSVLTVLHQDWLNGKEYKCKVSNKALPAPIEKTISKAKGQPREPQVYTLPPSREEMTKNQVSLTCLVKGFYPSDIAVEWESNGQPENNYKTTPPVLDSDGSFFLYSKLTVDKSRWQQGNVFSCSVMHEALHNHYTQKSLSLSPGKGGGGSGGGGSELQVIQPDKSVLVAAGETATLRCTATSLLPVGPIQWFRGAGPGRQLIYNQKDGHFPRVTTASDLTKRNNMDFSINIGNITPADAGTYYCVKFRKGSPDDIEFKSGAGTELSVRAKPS
light: EIVLTQSPGTLSLSPGERATLSCRASQRVSSSYLAWYQQKPGQAPRLLIYDASSRATGIPDRFSGSGSGTDFTLTISRLEPEDFAVYYCQQYGSLPWTFGQGTKVEIKRTVAAPSVFIFPPSDEQLKSGTASVVCLLNNFYPREAKVQWKVDNALQSGNSQESVTEQDSKDSTYSLSSTLTLSKADYEKHKVYACEVTHQGLSSPVTKSFNRGEC
notes: First polypeptide chain is the SG1202 light chain
IC50 (PD-L1-Fc): 9.12 nM | IC50 [1]: 0.77 nM
